Substitutions are numbered along the chain they refer to.
T1: human CTGF (antigen of the Biacore assays) (human, UniProt P29279 27-349)
T1 construct: also called antigen human CTGF; human CTGF protein
T1 sequence (looked up): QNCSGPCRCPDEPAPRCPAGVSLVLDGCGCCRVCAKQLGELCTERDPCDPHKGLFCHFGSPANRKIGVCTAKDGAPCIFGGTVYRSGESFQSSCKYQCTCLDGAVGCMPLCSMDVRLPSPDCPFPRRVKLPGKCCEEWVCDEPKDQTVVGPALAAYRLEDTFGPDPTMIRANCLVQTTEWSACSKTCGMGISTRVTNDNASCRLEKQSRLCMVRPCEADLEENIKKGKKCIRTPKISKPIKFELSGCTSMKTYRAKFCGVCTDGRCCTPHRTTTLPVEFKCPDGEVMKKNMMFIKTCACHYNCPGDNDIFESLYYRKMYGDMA

T2: mouse CTGF (antigen of the Biacore assay) (mouse, UniProt P29268 26-348)
T2 construct: also called mouse CTGF protein
T2 sequence (looked up): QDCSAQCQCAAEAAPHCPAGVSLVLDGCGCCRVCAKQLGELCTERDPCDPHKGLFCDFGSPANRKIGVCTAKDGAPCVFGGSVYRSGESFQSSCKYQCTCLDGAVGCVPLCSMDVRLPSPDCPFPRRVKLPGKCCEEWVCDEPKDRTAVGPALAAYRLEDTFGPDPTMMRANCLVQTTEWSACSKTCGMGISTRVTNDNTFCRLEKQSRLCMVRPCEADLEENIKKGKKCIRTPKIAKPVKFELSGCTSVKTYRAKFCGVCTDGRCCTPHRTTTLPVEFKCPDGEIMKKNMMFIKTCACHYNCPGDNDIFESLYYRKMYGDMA

T3: human CTGF protein (R&D, Cat No. 9190-CC) (human, UniProt P29279 27-349)
T3 construct: Bought protein; also called CTGF recombinant protein; CTGF (R&D)
T3 sequence: T1 sequence (looked up) with H57D

B1: Hu95-41wk (antibody, human IgG1, kappa, V domains shown)
VH: EVQLVQSGAEVKKPGASVKVSCKASGFTFTNYDIHWVKQAPGQRLEWIGLVYPYNGGTAYNQKFKDKATLTFDTSASTAYMELSSLRSEDTAVYYCARWGLIPGTTSYFDVWGQGTTVTVSS
VL: EIVLTQSPATLSLSPGERATLSCRASSSVSYIHWYQQKPGQAPRPWIYATSNLASGIPARFSGSGSGTDYTLTISRLEPEDFAVYYCQQWNSNPWTFGGGTKVEIKR
B2: Hu95-42wk (antibody, human IgG1, kappa, V domains shown)
VH: B1 VH
VL: B1 VL with A42S, I57V, D69S
B3: Hu95-31wk (antibody, human IgG1, kappa, V domains shown)
VH: B1 VH with I48M, A68V
VL: B1 VL
B4: Hu95-21wk (antibody, human IgG1, kappa, V domains shown)
VH: B1 VH with K38R, K67R
VL: B1 VL
B5: Hu95-51yk (antibody, human IgG1, kappa, V domains shown)
VH: B1 VH with K23R, D33A, I48M, N55T, A68V, L101M, T106N
VL: B1 VL
B6: chimeric antibody Ch164 (antibody, human IgG1, lambda, V domains shown)
VH: QVQLKQSGPGLVQPSQSLSITCTVSGFSLTTFGVHWIRQSPGKGLEWLGVIWRRGGTDYNAAFMSRLSITKDNSRSHVFFKMTSLQTDDSAIYYCARDGGFDYWGQGTTLTVSS
VL: QAVVTQESALTTSPGGTVILTCRSSIGAVTTSNYANWVQEKPDHLFTGLIGGTSNRAPGVPVRFSGSLIGDKAALTITGAQAEDDAMYFCALWYSTHYVFGGGTKVTVLG
B7: chimeric antibody Ch147 (antibody, human IgG1, kappa, V domains shown)
VH: EVQLVESGGGLVQPEGSLKLSCAASGFSFNTYAMNWVRQAPGKGLEWVARIRTKSNNYATYYADSVKDRFTISRDDSESMLYLQMNNLKTEDTAMYYCVETGFAYWDQGTLVTVSA
VL: QIVLTQSPAIMSASPGEKVTITCSASSSVSYMHWFQQKPGTSPKLWIYSTSNLASGVPARFSGSGSGTSYSLTISRMEAEDAATYYCQQRSSYPLTFGAGTKLELKR
B8: chimeric antibody Ch95 (antibody, human IgG1, kappa, V domains shown)
VH: EVLLQQSGPVLVKPGPSVKISCKASGFTFTNYDIHWVKQSHGKSLEWIGLVYPYNGGTAYNQKFKDKATLTFDTSSSTAYMELNSLTSEDSAVYYCARWGLIPGTTSYFDVWGTGTTVTVSS
VL: QIVLSQSPPILSASPGEKVTMTCRASSSVSYIHWYQQKPRSSPKPWIYATSNLASGVPARFSGSGSGTSYSLTISRVEAEDAATYYCQQWNSNPWTFGGGTRLEIKR

These binders were tested against T1, human CTGF (antigen of the Biacore …) (assay: Biacore, antibody captured on Protein A, CTGF in flow, 1:1 fit).
Description: (§1) A certain amount of each of the test antibodies was affinity-captured with Protein A biosensor chip (Cat. # 29127556, GE), and then a certain concentration of human or mouse CTGF was allowed to flow through the surface of the chip. The reaction signals were detected in real time with Biacore instrument to generate a binding and dissociation curve. After the dissociation was completed in each cycle, the biosensor chip was washed and regenerated with Glycine-HCl regeneration solution pH 1.5 (Cat. # BR-1003-54, GE). The running buffer for the assay was 1×HBS-EP buffer solution (Cat. # BR-1001-88, GE).

B1 and B2 are within 1.5-fold of each other in Kd: 5.29 nM for the first, 5.74 nM for the second.

B3 and B4 are within 1.5-fold of each other in Kd: 5.84 nM for the first, 7.39 nM for the second.

Going from B5 to B6, the Kd rises from 0.0358 nM to 0.133 nM (3.7-fold). The first binds more tightly here.

Going from B7 to B8, the Kd rises from 0.466 nM to 3.85 nM (8.3-fold).

First: B1
Second: B2
The koff of the first is 2.1-fold higher: 0.0408 s⁻¹ for the first, 0.0191 s⁻¹ for the second.

B3 and B4 are within 1.5-fold of each other in koff: 0.0326 s⁻¹ for the first, 0.0303 s⁻¹ for the second.

Going from B5 to B6, the koff rises from 0.00102 s⁻¹ to 0.00883 s⁻¹ (8.7-fold).

Going from B7 to B8, the koff rises from 0.00693 s⁻¹ to 0.0302 s⁻¹ (4.4-fold).

Going from B1 to B2, the kon falls from 7.7e+06 M⁻¹ s⁻¹ to 3.32e+06 M⁻¹ s⁻¹ (2.3-fold).

B3 and B4 are within 1.5-fold of each other in kon: 5.59e+06 M⁻¹ s⁻¹ for the first, 4.09e+06 M⁻¹ s⁻¹ for the second.

Going from B5 to B6, the kon rises from 2.84e+07 M⁻¹ s⁻¹ to 6.62e+07 M⁻¹ s⁻¹ (2.3-fold).

Going from B7 to B8, the kon falls from 1.49e+07 M⁻¹ s⁻¹ to 7.85e+06 M⁻¹ s⁻¹ (1.9-fold).

What follows are binders tested against T4, Cynomolgus CTGF-Fc (fusion protein of cynomolgus CTGF coding region with Fc) (cynomolgus) (assay: ELISA, cyno-CTGF-Fc captured by anti-mFc).
T4 construct: also called cyno-CTGF-mFc protein; cyno-CTGF protein with Fc tag
T4 sequence (chain, as listed by the source limits assumed): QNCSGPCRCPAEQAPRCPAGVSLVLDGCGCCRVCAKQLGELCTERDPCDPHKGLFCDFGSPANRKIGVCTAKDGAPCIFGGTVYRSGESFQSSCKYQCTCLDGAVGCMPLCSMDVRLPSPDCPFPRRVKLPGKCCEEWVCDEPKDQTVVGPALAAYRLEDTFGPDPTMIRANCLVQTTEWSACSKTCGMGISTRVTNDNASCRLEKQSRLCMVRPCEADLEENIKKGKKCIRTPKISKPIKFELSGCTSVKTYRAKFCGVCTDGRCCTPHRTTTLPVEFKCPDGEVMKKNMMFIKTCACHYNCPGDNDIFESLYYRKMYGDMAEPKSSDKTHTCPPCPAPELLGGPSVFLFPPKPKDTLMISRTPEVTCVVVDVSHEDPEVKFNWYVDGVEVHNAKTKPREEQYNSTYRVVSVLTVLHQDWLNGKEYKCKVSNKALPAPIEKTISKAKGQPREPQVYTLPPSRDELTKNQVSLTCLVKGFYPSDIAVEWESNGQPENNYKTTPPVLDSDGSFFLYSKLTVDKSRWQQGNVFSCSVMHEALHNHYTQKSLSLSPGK
Experimental: The binding activity of anti-monkey CTGF antibody to monkey CTGF protein was tested by ELISA assay. A 96-well microtiter plate was directly coated with anti-mFc protein, and then the cyno-CTGF protein with Fc tag was bound to the plate, and then the antibody was added. The signal strength upon the addition of the antibody was used to determine the binding activity of the antibody to cyno-CTGF. The specific experimental procedures were as follows:
The anti-mFc Protein (Sigma, Cat No. M4280) was diluted with PBS, pH 7.4 (Shanghai Yuanpei, Cat No. B320) buffer to a concentration of 2 μg/ml, which was added into the 96-well microtiter plate (Corning, Cat No. CLS3590-100EA) at 50 μl/well, and incubated in an incubator at 37° C. for 2 hours. The liquid was removed, 250 μl/well blocking solution (5% skim milk (BD skim milk, Cat No.232100) diluted in PBS) was added, and incubated in an incubator at 37° C. for 3 hours or at 4° C. overnight (16-18 hours) for blocking. After the blocking was finished, the blocking solution was removed, the plate was washed for 3 times with PBST buffer (PBS containing 0.1% Tween-20, pH 7.4), 50 μl of 1 μg/ml cyno-CTGF-mFc protein was added into each well, incubated in an incubator at 37° C. for 1 hour, and then the plate was washed for 3 times with PBST buffer (PBS containing 0.1% Tween-20, pH 7.4). 50 μl/well of various concentrations of each of the test antibodies (antibodies purified from hybridoma or humanized antibodies) diluted with sample dilution solution were added, and incubated in an incubator at 37° C. for 1 hours. After the incubation was finished, the plate was washed for 3 times with PBST, 50 μl/well of HRP-labeled goat anti-mouse secondary antibody (Jackson Immuno Research, Cat No. 115-035-003) or goat anti-human secondary antibody (Jackson Immuno Research, Cat No. 109-035-003) diluted with sample dilution solution was added, and incubated at 37° C. for 1 hour. The plate was washed for 5 times with PBST, 50 μl/well of TMB chromogenic substrate (KPL, Cat No. 52-00-03) was added, incubated at room temperature for 5-10 min, and 50 μl/well of 1 M H₂SO₄ was added to stop the reaction. The absorbance value was read by a microplate reader (Molecular Devices, VERSA max) at a wavelength of 450 nm, and the data was analyzed with GraphPad Prism 5. The binding of CTGF antibody to cyno CTGF protein was calculated as EC50 value.

Binder B5 has an EC50 of 0.059 nM.

Each binder was assayed against T2, mouse CTGF (antigen of the Biacore …) (assay: Biacore, antibody captured on Protein A, mouse CTGF in flow, 1:1 fit).
Description: as §1

B1 and B2 are within 1.5-fold of each other in Kd: 2.44 nM for the first, 2.42 nM for the second.

B3 and B4 are within 1.5-fold of each other in Kd: 2.87 nM for the first, 3.99 nM for the second.

Going from B5 to B6, the Kd rises from 0.0202 nM to 0.0822 nM (4.1-fold). The first binds more tightly here.

B7 and B8 are within 1.5-fold of each other in Kd: 1.23 nM for the first, 1.71 nM for the second.

First: B1
Second: B2
The koff of the first is 2.5-fold higher: 0.0339 s⁻¹ for the first, 0.0137 s⁻¹ for the second.

B3 and B4 are within 1.5-fold of each other in koff: 0.0225 s⁻¹ for the first, 0.0211 s⁻¹ for the second.

First: B5
Second: B6
The koff of the first is 20-fold lower: 0.000516 s⁻¹ for the first, 0.0101 s⁻¹ for the second.

First: B7
Second: B8
The koff of the first is 1.6-fold higher: 0.0384 s⁻¹ for the first, 0.0235 s⁻¹ for the second.

First: B1
Second: B2
The kon of the first is 2.5-fold higher: 1.39e+07 M⁻¹ s⁻¹ for the first, 5.66e+06 M⁻¹ s⁻¹ for the second.

B3 and B4 are within 1.5-fold of each other in kon: 7.84e+06 M⁻¹ s⁻¹ for the first, 5.29e+06 M⁻¹ s⁻¹ for the second.

First: B5
Second: B6
The kon of the first is 4.8-fold lower: 2.56e+07 M⁻¹ s⁻¹ for the first, 1.23e+08 M⁻¹ s⁻¹ for the second.

Compared with B7, B8 is 2.3-fold lower in kon: 3.12e+07 M⁻¹ s⁻¹ for the first, 1.38e+07 M⁻¹ s⁻¹ for the second.

Each binder was assayed against T3, human CTGF protein (R&D, Cat No. …) (assay: ELISA, plate coated with CTGF (R&D 9190-CC)).
Experimental: The binding activity of anti-human CTGF antibody to human CTGF protein was tested by ELISA assay and Biacore. A 96-well microtiter plate was directly coated with the CTGF recombinant protein. The signal strength upon the addition of the antibody was used to determine the binding activity of the antibody to CTGF. The specific experimental procedures were as follows:
The CTGF protein (R&D, Cat No. 9190-CC) was diluted with PBS, pH 7.4 (Shanghai Yuanpei, Cat No. B320) buffer to a concentration of 0.2 μg/ml, 50 μl/well of which was added into the 96-well microtiter plate (Corning, Cat No. CLS3590-100EA), and incubated in an incubator at 37° C. for 2 hours or at 4° C. overnight (16-18 hours). The liquid was removed, 250 μl/ well blocking solution (5% skim milk (BD skim milk, Cat No.232100) diluted in PBS) was added, and incubated in an incubator at 37° C. for 3 hours or at 4° C. overnight (16-18 hours) for blocking. After the blocking was finished, the blocking solution was removed, the plate was washed for 5 times with PBST buffer (PBS containing 0.1% Tween-20, pH 7.4), 50 μl/well of various concentrations of each of the test antibodies (antibodies purified from hybridoma or humanized antibodies) diluted with sample dilution solution were added, and incubated in an incubator at 37° C. for 1 hours. After the incubation was finished, the plate was washed for 3 times with PBST, 50 μl/well of HRP-labeled goat anti-mouse secondary antibody (Jackson Immuno Research, Cat No. 115-035-003) or goat anti-human secondary antibody (Jackson Immuno Research, Cat No. 109-035-003) diluted with sample dilution solution was added, and incubated at 37° C. for 1 hour. The plate was washed for 3 times with PBST, 50 μl/well of TMB chromogenic substrate (KPL, Cat No. 52-00-03) was added, incubated at room temperature for 5-10min, and 50 μl/well of 1 M H₂SO₄ was added to stop the reaction. The absorbance value was read by a microplate reader (Molecular Devices, VERSA max) at a wavelength of 450 nm, and the data was analyzed with GraphPad Prism 5. The binding of CTGF antibody to human CTGF protein was calculated as EC50 value.

With B5 the EC50 was 0.08 nM.

— patent publication US20220324953A1 (JIANGSU HENGRUI MEDICINE, published 2022)
